Results taken from article PMC12329598.

What was measured:
[1] = target: 1-442 Rap1GAP1a-RlucII, P47736-1; test: ebBRET (agonist-induced net BRET, Rap1GAP1a-RlucII recruitment to the plasma membrane); conditions: 10 μM DAMGO; parent: est. 0.22; read off a plot
[2] = target: 1-442 Rap1GAP1a-RlucII, P47736-1; test: ebBRET (Rap1GAP1a-RlucII recruitment to rGFP-CaaX at the plasma membrane); conditions: A293 cells with μ-opioid receptor, 48 h post-transfection, read off a plot
[3] = target: 1-442 Rap1GAP1a-RlucII, P47736-1; test: ebBRET (Rap1GAP1a-RlucII recruitment to the plasma membrane); conditions: A293 cells, parent: est. 0.17, read off a plot
[4] = double mutant in Gαo(Q205L) background, Gαo(Q205L) bar in same panel est. 0.39

Sequence of 1-442 Rap1GAP1a-RlucII, P47736-1 (P47736 1-442 S437A/S439A/S441A): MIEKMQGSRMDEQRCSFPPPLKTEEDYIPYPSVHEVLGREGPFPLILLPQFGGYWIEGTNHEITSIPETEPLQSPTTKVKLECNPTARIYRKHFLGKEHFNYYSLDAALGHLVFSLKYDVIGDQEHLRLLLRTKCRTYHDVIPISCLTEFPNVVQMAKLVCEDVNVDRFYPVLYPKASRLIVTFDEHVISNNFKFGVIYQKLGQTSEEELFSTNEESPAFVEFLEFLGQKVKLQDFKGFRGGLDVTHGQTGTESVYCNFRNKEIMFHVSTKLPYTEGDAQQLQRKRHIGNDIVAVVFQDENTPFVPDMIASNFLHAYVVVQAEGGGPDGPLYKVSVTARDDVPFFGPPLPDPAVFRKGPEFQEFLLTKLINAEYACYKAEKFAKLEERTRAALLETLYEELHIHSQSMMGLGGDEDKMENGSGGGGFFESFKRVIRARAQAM

Row | Substance | response [1] [Net BRET] | response ([2]; 10 μM DAMGO, parent: est. 0.32) [BRET ratio] | response ([2]; vehicle, parent: est. 0.12) [BRET ratio] | response ([3]; no-Gαo control bar est. 0.07) [BRET ratio] | response [3, 4] [BRET ratio]
1 | HA-Gαo^(WT) (from UniProt P09471) A221D | 0.14 | 0.18 | 0.04 | – | –
2 | HA-Gαo^(WT) (from UniProt P09471) E237K | 0.07 | 0.11 | 0.04 | – | –
3 | HA-Gαo^(WT) (from UniProt P09471) E246G | 0.03 | 0.06 | 0.035 | – | –
4 | HA-Gαo^(WT) (from UniProt P09471) G203E | 0.04 | 0.08 | 0.035 | – | –
5 | HA-Gαo^(WT) (from UniProt P09471) N242T | 0.23 | 0.3 | 0.07 | – | –
6 | HA-Gαo^(WT) (from UniProt P09471) Q205L | – | – | – | 0.39 | –
7 | HA-Gαo^(WT) (from UniProt P09471) Q205L; A221D | – | – | – | – | 0.37
8 | HA-Gαo^(WT) (from UniProt P09471) Q205L; E237K | – | – | – | – | 0.14
9 | HA-Gαo^(WT) (from UniProt P09471) Q205L; E246G | – | – | – | – | 0.08
10 | HA-Gαo^(WT) (from UniProt P09471) Q205L; G203E | – | – | – | – | 0.085
11 | HA-Gαo^(WT) (from UniProt P09471) Q205L; N242T | – | – | – | – | 0.41
12 | HA-Gαo^(WT) (from UniProt P09471) Q205L; R209C | – | – | – | – | 0.035
13 | HA-Gαo^(WT) (from UniProt P09471) Q205L; R209H | – | – | – | – | 0.04
14 | HA-Gαo^(WT) (from UniProt P09471) R209C | 0.012 | 0.04 | 0.03 | – | –
15 | HA-Gαo^(WT) (from UniProt P09471) R209H | 0.015 | 0.045 | 0.035 | – | –
